What all share (test): ELISA
The target in one series is Spike S1-His (SARS-CoV-2, UniProt P0DTC2 14-685).
The target in series [1] is T1, Spike S2 (SARS-CoV-2, UniProt P0DTC2 686-1213).
Series [2] concerns the target T1, Spike S2. The source holds these as a separate data set.
The target in a further series is Nucleocapsid-His (SARS-CoV-2, UniProt P0DTC9 1-419).

Like-named read-outs stand apart in the source and are kept apart here.

B1: N-Ap (structured_DNA)
DNA: GCTGGATGTCACCGGATTGTCGGACATCGGATTGTCTGAGTCATATGACACATCCAGC
For B1, the binding result with Spike S1-His and in the series with Spike S2 [1] was “no binding” in each case.

B2: RBD-Ap-2 (structured_DNA)
DNA: CGCAGCACCCAAGAACAAGGACTGCTTAGGATTGCGATAGGTTCGG
For B2, the binding result with Spike S2 [2] and with Nucleocapsid-His was “no binding” throughout.

B3: RBD-Ap-1 (structured_DNA)
DNA: CAGCACCGACCTTGTGCTTTGGGAGTGCTGGTCCAAGGGCGTTAATGGACA
As for B3, the binding result with Spike S2 [2] is on record as “no binding”.

Source of the values: paper PMC9238363.
